In US20210254073A1 one finds SAINT score data, which are given here for five substances.

Test [1] concerns the target human Heat Shock Factor 1 (HSF1) tagged with GFP (Homo sapiens; Aequorea victoria) (UniProt Q00613). Kind of test: AptA-MS: GFP-aptamer pull-down of HSF1-GFP from HCT116 lysate, mass spectrometry, SAINT probability score of interaction.
The target is the same in test [2]. Kind of test: AptA-MS of HSF1-GFP from non-heat-shocked HCT116 cells, SAINT probability score of interaction.
For test [3] the target is unchanged. Kind of test: AptA-MS of HSF1-GFP from heat-shocked HCT116 cells, SAINT probability score of interaction.

Chain of UniProt Q00613 (Q00613 whole entry): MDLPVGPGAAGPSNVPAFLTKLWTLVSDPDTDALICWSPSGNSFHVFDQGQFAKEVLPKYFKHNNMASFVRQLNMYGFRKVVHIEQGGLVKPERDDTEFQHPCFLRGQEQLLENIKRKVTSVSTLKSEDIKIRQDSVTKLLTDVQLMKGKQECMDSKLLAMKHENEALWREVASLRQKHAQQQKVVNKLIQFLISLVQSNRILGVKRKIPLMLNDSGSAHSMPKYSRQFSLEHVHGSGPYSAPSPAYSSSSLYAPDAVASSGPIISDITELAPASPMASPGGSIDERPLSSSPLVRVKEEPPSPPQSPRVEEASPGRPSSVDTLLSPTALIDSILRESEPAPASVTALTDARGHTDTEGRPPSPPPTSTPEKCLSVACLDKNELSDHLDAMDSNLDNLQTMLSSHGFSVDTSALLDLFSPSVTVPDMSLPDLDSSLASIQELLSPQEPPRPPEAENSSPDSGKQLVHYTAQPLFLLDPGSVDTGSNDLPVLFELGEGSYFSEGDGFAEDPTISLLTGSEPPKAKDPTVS

“Elongation Factor 1-alpha 1 (from UniProt P68104 2-462)” displayed an SAINT score in test [1] of 0.69.
Same read-out and setting: next, “Elongation Factor 1-alpha 2 (from UniProt Q05639 2-463)”: 0.66.
With HSF2 (from UniProt Q03933 1-536), in test [2], the SAINT score was 0.78.
Regarding “Thymidylate Kinase (from UniProt P23919 2-212) (enzyme)”, in test [3], the SAINT score was determined as 0.98.
Substance “translation elongation factor HBS1 (from UniProt Q9Y450 1-684)” gave an SAINT score in test [3] of 0.92.
